In the Human Domainome abundance scans (Beltran et al. 2025):
± gives the uncertainty stated by the source.

B1: Intersectin-1, residues 1156 to 1213; numbered along this chain, Q15811 (parent)
chain: AVCQVIGMYDYTAQNDDELAFNKGQIINVLNKEDPDWWKGEVNGQVGLFPSNYVKLTT

Variants of: B1
Assay: abundance fitness (aPCA) (normalised: wild type 0, dead -1); higher = more abundant; growth selection in yeast, the domain comes from the species named
Conditions: Homo sapiens

Abundance fitness of substitutions, site by site:
K32: A 0.093 ± 0.095 | C -0.147 ± 0.14 | L -0.38 ± 0.093 | D -0.296 ± 0.15 | W -0.109 ± 0.13 | G -0.527 ± 0.095 | S -0.16 ± 0.13 | P -0.736 ± 0.2 | N -0.339 ± 0.18 | T -0.093 ± 0.14 | H -0.449 ± 0.21 | F -0.576 ± 0.23 | Q -0.035 ± 0.17 | Y -0.341 ± 0.21 | R 0.066 ± 0.089 | M -0.039 ± 0.15
I26: K -0.084 ± 0.19 | C -0.149 ± 0.17 | D -0.807 ± 0.22 | E -0.278 ± 0.16 | F -0.523 ± 0.3 | T 0.163 ± 0.15 | Q -0.304 ± 0.22 | G -0.857 ± 0.14 | H -0.332 ± 0.26 | R -0.131 ± 0.094 | L 0.18 ± 0.12 | V 0.297 ± 0.12 | M -0.462 ± 0.2 | P -0.561 ± 0.23 | W -0.505 ± 0.17 | S -0.554 ± 0.14 | A -0.237 ± 0.13
W38: T -0.892 ± 0.17 | M -0.733 ± 0.24 | R -1.08 ± 0.19 | A -0.533 ± 0.12 | E -0.779 ± 0.23 | C -0.793 ± 0.22 | G -0.822 ± 0.11 | K -0.671 ± 0.23 | I -1.03 ± 0.33 | H -0.793 ± 0.21 | L -0.737 ± 0.12 | V -0.906 ± 0.14 | Y -0.791 ± 0.2 | P -0.853 ± 0.22 | D -0.674 ± 0.2 | F -0.859 ± 0.2 | N -0.644 ± 0.2 | S -0.763 ± 0.12 | Q -0.715 ± 0.21
L30: Y -0.32 ± 0.22 | R -0.712 ± 0.12 | A -0.911 ± 0.14 | D -0.917 ± 0.27 | F -0.123 ± 0.14 | G -0.933 ± 0.14 | H -0.7 ± 0.37 | K -0.825 ± 0.31 | V -0.081 ± 0.085 | Q -0.257 ± 0.18 | P -1.04 ± 0.24 | E -0.978 ± 0.31 | N -0.505 ± 0.3 | M -0.412 ± 0.15 | I 0.043 ± 0.18 | C -0.867 ± 0.24 | T -0.476 ± 0.15 | S -0.758 ± 0.14
D34: H -0.158 ± 0.17 | N -0.348 ± 0.17 | G -0.409 ± 0.1 | W -0.894 ± 0.19 | V -0.691 ± 0.12 | Q -0.489 ± 0.19 | A -0.385 ± 0.12 | I -0.974 ± 0.25 | S -0.221 ± 0.098 | Y -0.94 ± 0.29 | T -0.383 ± 0.17 | P -0.543 ± 0.24 | E -0.376 ± 0.17 | C -0.553 ± 0.14 | R -0.116 ± 0.1 | K -0.176 ± 0.2 | L -0.673 ± 0.14 | F -0.554 ± 0.19
E41: C -0.787 ± 0.2 | K -0.456 ± 0.15 | A -0.568 ± 0.12 | W -0.642 ± 0.15 | F -1.22 ± 0.3 | Y -0.887 ± 0.23 | V -0.681 ± 0.12 | P -1 ± 0.21 | S -0.299 ± 0.1 | D -1.11 ± 0.41 | N -0.889 ± 0.25 | I -0.936 ± 0.29 | G -0.842 ± 0.11 | R -0.746 ± 0.097 | H -0.495 ± 0.28 | Q -0.863 ± 0.24
E33: N -0.516 ± 0.23 | P -0.6 ± 0.23 | G -0.241 ± 0.098 | T -0.075 ± 0.15 | K -0.236 ± 0.18 | I -0.451 ± 0.35 | L -0.497 ± 0.14 | R -0.367 ± 0.11 | D -0.047 ± 0.16 | A -0.211 ± 0.11 | F -0.61 ± 0.22 | W -0.987 ± 0.2 | H -0.373 ± 0.18 | Q -0.077 ± 0.24 | V -0.324 ± 0.14 | S -0.101 ± 0.11
N28: A -0.225 ± 0.15 | T 0.281 ± 0.23 | I -0.451 ± 0.31 | M -0.298 ± 0.24 | R -0.065 ± 0.13 | G -0.732 ± 0.16 | V -0.423 ± 0.17 | S 0.186 ± 0.18 | F -0.243 ± 0.4 | E -0.156 ± 0.22 | D -0.284 ± 0.2 | P -0.942 ± 0.38 | Q -0.399 ± 0.29 | Y -0.011 ± 0.44 | C -0.632 ± 0.25 | K -0.014 ± 0.33
V42: D -0.663 ± 0.17 | Y 0.042 ± 0.19 | P -0.72 ± 0.26 | K -0.405 ± 0.33 | Q -0.617 ± 0.32 | I -0.048 ± 0.13 | A 0.041 ± 0.093 | N -0.756 ± 0.48 | W -0.811 ± 0.21 | T -0.299 ± 0.17 | G -0.62 ± 0.094 | L 0.018 ± 0.1 | M -0.093 ± 0.18 | E -0.949 ± 0.22 | R -0.274 ± 0.1 | C 0.091 ± 0.13 | H -0.237 ± 0.17
G40: M -0.658 ± 0.17 | E -0.769 ± 0.16 | L -0.783 ± 0.12 | T -0.56 ± 0.17 | V -0.891 ± 0.14 | I -0.752 ± 0.26 | W -0.981 ± 0.18 | F -0.953 ± 0.3 | S -0.839 ± 0.11 | A -0.753 ± 0.12 | P -0.591 ± 0.16 | Y -0.73 ± 0.19 | K -0.848 ± 0.19 | D -0.722 ± 0.19 | H -0.832 ± 0.21
N22: W -0.466 ± 0.13 | P -0.062 ± 0.14 | V -0.06 ± 0.086 | Y -0.422 ± 0.14 | L -0.285 ± 0.12 | I -0.286 ± 0.18 | M 0.02 ± 0.14 | K -0.027 ± 0.16 | S 0.009 ± 0.084
I27: Y -0.564 ± 0.2 | Q -1.05 ± 0.23 | G -0.746 ± 0.1 | S -0.915 ± 0.14 | V -0.297 ± 0.096 | A -0.789 ± 0.14 | D -0.695 ± 0.21 | L -0.373 ± 0.11 | N -0.765 ± 0.28 | P -0.612 ± 0.17 | T -0.859 ± 0.16 | H -0.748 ± 0.25 | W -0.908 ± 0.18 | F -0.805 ± 0.22 | K -0.81 ± 0.23 | M -0.696 ± 0.22 | R -0.85 ± 0.1 | E -0.811 ± 0.2
G24: E -0.895 ± 0.15 | P -0.825 ± 0.16 | K -0.571 ± 0.17 | I -0.682 ± 0.26 | N -0.348 ± 0.19 | Q -0.44 ± 0.15 | W -0.528 ± 0.12 | V -0.895 ± 0.13 | D -0.579 ± 0.18 | S -0.524 ± 0.099 | M -0.693 ± 0.17 | F -0.739 ± 0.26 | A -0.854 ± 0.12 | T -0.599 ± 0.16
G44: H -0.658 ± 0.23 | Q -0.613 ± 0.14 | E -0.911 ± 0.17 | N -0.219 ± 0.19 | P -0.806 ± 0.17 | K -0.981 ± 0.25 | I -0.797 ± 0.21 | D -0.397 ± 0.12 | T -0.92 ± 0.18 | S -0.677 ± 0.1 | R -0.83 ± 0.1 | L -0.879 ± 0.13 | A -0.56 ± 0.11 | Y -0.734 ± 0.22 | M -0.88 ± 0.17 | W -0.832 ± 0.15 | C -0.682 ± 0.15
D36: T -0.143 ± 0.12 | K 0.071 ± 0.13 | H -0.08 ± 0.15 | L -0.072 ± 0.094 | I -0.138 ± 0.22 | F -0.175 ± 0.14 | M -0.018 ± 0.13 | C -0.117 ± 0.14 | A -0.004 ± 0.1 | V -0.069 ± 0.099 | G -0.279 ± 0.087 | E -0.196 ± 0.12 | Y 0.01 ± 0.24 | R -0.009 ± 0.084 | P -0.53 ± 0.14 | S -0.131 ± 0.096 | Q -0.218 ± 0.16 | N -0.203 ± 0.15
K39: V -0.448 ± 0.48
N43: G -0.241 ± 0.084 | C -0.541 ± 0.16 | M -0.56 ± 0.13 | S -0.294 ± 0.12 | E -0.189 ± 0.12 | L -0.412 ± 0.11 | W -1.06 ± 0.29 | K -0.411 ± 0.14 | A -0.263 ± 0.1 | D -0.03 ± 0.14 | T -0.85 ± 0.16 | P -0.736 ± 0.19 | R -0.436 ± 0.1 | H -0.08 ± 0.18 | V -0.794 ± 0.12 | F -0.799 ± 0.24 | I -0.93 ± 0.2 | Y -0.734 ± 0.16 | Q -0.36 ± 0.15
V29: N -0.721 ± 0.23 | C -0.219 ± 0.13 | Q -1.01 ± 0.19 | G -0.742 ± 0.098 | D -0.739 ± 0.14 | H -1.03 ± 0.26 | W -0.672 ± 0.14 | S -0.827 ± 0.13 | I -0.617 ± 0.16 | E -0.925 ± 0.19 | T -0.788 ± 0.16 | K -0.699 ± 0.19 | L -0.323 ± 0.099 | R -0.9 ± 0.11 | Y -0.504 ± 0.24
K23: W -0.852 ± 0.16 | Q -0.043 ± 0.14 | T 0.065 ± 0.11 | M -0.487 ± 0.17 | C -0.275 ± 0.14 | F -0.613 ± 0.21 | E -0.011 ± 0.11 | P -0.921 ± 0.21 | I -0.849 ± 0.25 | N -0.494 ± 0.24 | A 0.215 ± 0.097 | G -0.701 ± 0.11 | L -0.77 ± 0.13 | S -0.214 ± 0.09 | Y -0.673 ± 0.16 | V -0.21 ± 0.097 | H -0.298 ± 0.15 | D -0.859 ± 0.23 | R 0.137 ± 0.08
N31: P -0.833 ± 0.18 | Q -0.099 ± 0.13 | T -0.159 ± 0.11 | K -0.319 ± 0.15 | I -0.559 ± 0.27 | F -1.05 ± 0.42 | V -0.313 ± 0.11 | R -0.373 ± 0.094 | E 0.196 ± 0.15 | M -0.275 ± 0.13 | H -0.095 ± 0.23 | G -0.076 ± 0.088 | A 0.037 ± 0.12 | W -0.287 ± 0.12 | L -0.631 ± 0.12 | Y -0.525 ± 0.27 | C 0.287 ± 0.16 | D 0.223 ± 0.16 | S 0.006 ± 0.098
W37: D -0.637 ± 0.17 | P -0.947 ± 0.19 | G -0.72 ± 0.099 | Y -0.058 ± 0.13 | E -0.737 ± 0.15 | M 0.004 ± 0.12 | S -0.778 ± 0.12 | K -0.792 ± 0.2 | R -0.49 ± 0.084 | H -0.887 ± 0.19 | I -0.022 ± 0.15 | F -0.307 ± 0.18 | Q -0.223 ± 0.13 | C -0.588 ± 0.18 | A -0.585 ± 0.11 | T -0.276 ± 0.13 | L -0.339 ± 0.085
